B1: HDV Ribozyme (parent)
chain: GGCCGGCAUGGUCCCAGCCUCCUCGCUGGCGCCGGCUGGGCAACAUUCCGAGGGGACCGUCCCCUCGGUAAUGGCGAAUGGGACCCA

Variants of: B1
Experiment: self-cleavage, relative activity (ratio to wild type); higher = more cleavage; co-transcriptional

Row | Variant | self-cleavage
1 | G2C C66A | 0.0913
2 | G2C U47G | 0.0923
3 | G2A U69A | 0.22
4 | G2A U72A | 0.053
5 | G2A C19A | 0.0292
6 | G2C U20C | 0.0536
7 | C3A C66A | 0.473
8 | G2A G50A | 0.0386
9 | G2A C36A | 0.228
10 | C3G A71G | 0.631
11 | C3G A71U | 0.502
12 | G2U C58U | 0.109
13 | C3A C13A | 0.0329
14 | G1U G67C | 0.305
15 | G2C A42G | 0.13
16 | G1U G40C | 0.491
17 | G2C A77U | 0.119
18 | G2U G35U | 0.0318
19 | G2U G35A | 0.0308
20 | G2U C75A | 0
21 | G2C G5A | 0.0563
22 | G2A G38U | 0.0373
23 | C3A C63A | 0.492
24 | C3A C14G | 0.17

Row | Variant | self-cleavage
25 | G2A G6A | 0.0563
26 | C3A G40U | 0.256
27 | C3A G40C | 0.0923
28 | G2U U65G | 0.0782
29 | G2U U65C | 0.0391
30 | G2U G31C | 0.0155
31 | C3A U12G | 0.241
32 | C3A U12A | 0.0848
33 | C3G A78G | 0.151
34 | G2C C24A | 0.0791
35 | G1U U47A | 0.295
36 | G2C A43U | 0.0297
37 | G2C A43G | 0
38 | G2A A83U | 0.119
39 | G2A A8U | 0.0432
40 | G2A A8C | 0.106
41 | C3A C19G | 0.0441
42 | G2C A71U | 0.11
43 | G2C A71C | 0.0723
44 | G2A C26A | 0.216
45 | G2A C26G | 0.166
46 | C3A G55A | 0.705
47 | G2A G59A | 0.208
48 | C3G C14A | 0.383

Row | Variant | self-cleavage
49 | G1U C49A | 0.502
50 | G2U G40U | 0.0132
51 | G2A C22G | 0.0191
52 | G2U G73A | 0.0484
53 | G1U U79G | 0.539
54 | G2A C58A | 0.234
55 | G2A C58U | 0.113
56 | G2C C62A | 0.0462
57 | G2A A70U | 0.228
58 | G2U G29C | 0.0252
59 | G2U G39U | 0.0543
60 | G2U G39A | 0.00989
61 | G2C G52C | 0
62 | G2C G52U | 0.032
63 | G2A G10A | 0.0256
64 | C3A A51C | 0.374
65 | C3A C41A | 0.25
66 | C3A C41U | 0.321
67 | C3A C26U | 0.853
68 | G1U G68U | 0.287
69 | G2C U60A | 0.0779
70 | G2C U60G | 0.0326
71 | G2U A45U | 0.0554
72 | G2U G81U | 0.0198

Row | Variant | self-cleavage
73 | C3A G50U | 0.754
74 | C3A G50A | 0.545
75 | G2A C49U | 0.237
76 | G2A U60C | 0.354
77 | C3A A83G | 0.434
78 | G2C C33A | 0.0528
79 | C3A G25U | 0.0631
80 | G2U G52U | 0.055
81 | G2C G55C | 0.0656
82 | G2C G55U | 0.0346
83 | G2C G53U | 0.0665
84 | C3A A16U | 0.318
85 | G1U C30A | 0.426
86 | G2U C18U | 0.0755
87 | G2U G28C | 0.0234
88 | G1U G31A | 0.364
89 | C3A G6A | 0.0931
90 | C3A G6C | 0.0282
91 | G1U U27C | 0.26
92 | G1U G11C | 0.288
93 | C3A G67A | 0.462
94 | C3A G28A | 0.0138
95 | C3A G28U | 0.0536
96 | G2U G38C | 0.0181

Row | Variant | self-cleavage
97 | G1U U60C | 0.0811
98 | G2U A42G | 0.0767
99 | G2U C24A | 0.0554
100 | G1U G10C | 0.292
101 | G2U U72C | 0.0191
102 | G1U U65C | 0.399
103 | C3A U79A | 0.175
104 | C3A U79C | 0.106
105 | C3A U79G | 0.175
106 | G1U G5A | 0.445
107 | G2U C3G | 0.0222
108 | G2U C3U | 0.0228
109 | C3A A71G | 0.38
110 | C3A A71U | 0.385
111 | G2U G82C | 0.112
112 | C3A C64G | 0.32
113 | G1U C32G | 0.305
114 | G1U C32U | 0.532
115 | G2A G5U | 0.0453
116 | G2U C14G | 0.0354
117 | G2U C14U | 0.0468
118 | G2A C44U | 0.0554
119 | C3A G11U | 0.138
120 | G2C G67U | 0.026

Row | Variant | self-cleavage
121 | C3A U69C | 0.665
122 | G2C C57G | 0.0228
123 | G2U A56G | 0.0674
124 | G2U C84A | 0.0219
125 | C3A G74A | 0.0326
126 | C3A G74U | 0.156
127 | G2U C49A | 0.118
128 | C3A U23G | 0.352
129 | C3G A16G | 0.408
130 | C3A C18U | 0.00889
131 | C3A C18A | 0.0282
132 | C3A C36A | 0.071
133 | G2U G50C | 0.0179
134 | G2U G50A | 0.047
135 | G2A C24G | 0.0378
136 | G2C C3G | 0
137 | G2U G55U | 0.0654
138 | G2A C63U | 0.162
139 | G2A C63G | 0.0804
140 | G2C C26U | 0.124
141 | G2C U27A | 0
142 | G2C U23C | 0
143 | G1U C48G | 0.243
144 | G2U A87U | 0.0747

Row | Variant | self-cleavage
145 | G1U G55C | 0.455
146 | G1U U46G | 0.259
147 | C3A U9C | 0.381
148 | G2U C64U | 0.111
149 | G2U C64A | 0.0339
150 | G2C G73U | 0.0683
151 | G1U U37G | 0.31
152 | G1U U37A | 0.584
153 | C3A A87U | 0.632
154 | G2A G52A | 0.143
155 | G2A G52C | 0.112
156 | C3G A56U | 0.769
157 | G1U C26U | 0.222
158 | G1U C22U | 0.356
159 | G2C C84U | 0.0181
160 | G2U A16G | 0.0426
161 | G2U A16U | 0.0237
162 | C3A G5A | 0.0332
163 | G2A G39A | 0.0171
164 | G2A G53A | 0.168
165 | G2A G53C | 0.348
166 | G2C G82A | 0.0462
167 | G1U C58G | 0.318

— the RNAGym collection of RNA variant scans (doi:10.7554/elife.80360)
